Measurements: article PMC11180146 (2024)

What was measured:
[1] = target: T1, RNAseB, glycosylated (HM N-glycan at N34, mainly Man5 and Man6) (beef (bovine), as said of the protein …, UniProt P61823 27-150, HM N-glycan (mainly Man5 and Man6) at N34); assay: SPR
T1 chain: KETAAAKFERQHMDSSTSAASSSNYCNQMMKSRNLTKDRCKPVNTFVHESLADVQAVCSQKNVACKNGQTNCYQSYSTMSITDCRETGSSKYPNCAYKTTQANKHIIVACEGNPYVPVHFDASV

[2] = target: RNAseB, glycosylated (HM N-glycan at N34, mainly Man5 and Man6) (beef (bovine), as said of the protein in general) (UniProt P61823); assay: SPR; glycosylated RNAseB (Man5/6) amine-coupled to a CM5 chip on flow cell 2 (150 RU), deglycosylated RNAseB on control flow cell 1; enzyme as analyte, 120 s injection, 600 s dissociation; HBS-EP running buffer; Biacore X100

koff [1]: 0.000419 s⁻¹
Kd [2]: 3.5 nM
B1: BT1285_(D161A-E163A), catalytically inactive variant of the GH18 endo-β-N-acetylglucosaminidase BT1285 (enzyme)
chain: MPVNQSDNNQSEVVTRSATGIKNIVYIEVNDINPLNAGSYIMDDAPFFDYVILFAANIRGVGSDATLYNNPNVQYILDHKDTLIKPLQDKGIKVLLGLLGDHTGLGFANMNSAQTEQFATAVANAVSQYGLDGVDFADAWAEYGRNGYPSGSTGSFSNLITALHNKMPGKTITVFNYGYTSELTGVNSYIDYGIYAFFNSPSWSTGFGMPNSKFAPYTINLNSAPSAASAQLYSGQVASKGYGAIGYYDLRANNIVSVLNGVAKGAFKSTCTYDGNSYPKNY
